Measurements from IntAct's records for PubMed 23263556.

B1: Nuclear factor of activated T-cells, cytoplasmic 1 (Homo sapiens), O95644 (parent)
chain: MPSTSFPVPSKFPLGPAAAVFGRGETLGPAPRAGGTMKSAEEEHYGYASSNVSPALPLPTAHSTLPAPCHNLQTSTPGIIPPADHPSGYGAALDGGPAGYFLSSGHTRPDGAPALESPRIEITSCLGLYHNNNQFFHDVEVEDVLPSSKRSPSTATLSLPSLEAYRDPSCLSPASSLSSRSCNSEASSYESNYSYPYASPQTSPWQSPCVSPKTTDPEEGFPRGLGACTLLGSPRHSPSTSPRASVTEESWLGARSSRPASPCNKRKYSLNGRQPPYSPHHSPTPSPHGSPRVSVTDDSWLGNTTQYTSSAIVAAINALTTDSSLDLGDGVPVKSRKTTLEQPPSVALKVEPVGEDLGSPPPPADFAPEDYSSFQHIRKGGFCDQYLAVPQHPYQWAKPKPLSPTSYMSPTLPALDWQLPSHSGPYELRIEVQPKSHHRAHYETEGSRGAVKASAGGHPIVQLHGYLENEPLMLQLFIGTADDRLLRPHAFYQVHRITGKTVSTTSHEAILSNTKVLEIPLLPENSMRAVIDCAGILKLRNSDIELRKGETDIGRKNTRVRLVFRVHVPQPSGRTLSLQVASNPIECSQRSAQELPLVEKQSTDSYPVVGGKKMVLSGHNFLQDSKVIFVEKAPDGHHVWEMEAKTDRDLCKPNSLVVEIPPFRNQRITSPVHVSFYVCNGKRKRSQYQRFTYLPANVPIIKTEPTDDYEPAPTCGPVSQGLSPLPRPYYSQQLAMPPDPSSCLVAGFPPCPQRSTLMPAAPGVSPKLHDLSPAAYTKGVASPGHCHLGLPQPAGEAPAVQDVPRPVATHPGSPGQPPPALLPQQVSAPPSSSCPPGLEHSLCPSSPSPPLPPATQEPTCLQPCSPACPPATGRPQHLPSTVRRDESPTAGPRLLPEVHEDGSPNLAPIPVTVKREPEELDQLYLDDVNEIIRNDLSSTSTHS

Variants of: B1
Settings: with jak3_human JAK3, P52333
jak3_human JAK3, P52333, sequence (P52333 whole entry): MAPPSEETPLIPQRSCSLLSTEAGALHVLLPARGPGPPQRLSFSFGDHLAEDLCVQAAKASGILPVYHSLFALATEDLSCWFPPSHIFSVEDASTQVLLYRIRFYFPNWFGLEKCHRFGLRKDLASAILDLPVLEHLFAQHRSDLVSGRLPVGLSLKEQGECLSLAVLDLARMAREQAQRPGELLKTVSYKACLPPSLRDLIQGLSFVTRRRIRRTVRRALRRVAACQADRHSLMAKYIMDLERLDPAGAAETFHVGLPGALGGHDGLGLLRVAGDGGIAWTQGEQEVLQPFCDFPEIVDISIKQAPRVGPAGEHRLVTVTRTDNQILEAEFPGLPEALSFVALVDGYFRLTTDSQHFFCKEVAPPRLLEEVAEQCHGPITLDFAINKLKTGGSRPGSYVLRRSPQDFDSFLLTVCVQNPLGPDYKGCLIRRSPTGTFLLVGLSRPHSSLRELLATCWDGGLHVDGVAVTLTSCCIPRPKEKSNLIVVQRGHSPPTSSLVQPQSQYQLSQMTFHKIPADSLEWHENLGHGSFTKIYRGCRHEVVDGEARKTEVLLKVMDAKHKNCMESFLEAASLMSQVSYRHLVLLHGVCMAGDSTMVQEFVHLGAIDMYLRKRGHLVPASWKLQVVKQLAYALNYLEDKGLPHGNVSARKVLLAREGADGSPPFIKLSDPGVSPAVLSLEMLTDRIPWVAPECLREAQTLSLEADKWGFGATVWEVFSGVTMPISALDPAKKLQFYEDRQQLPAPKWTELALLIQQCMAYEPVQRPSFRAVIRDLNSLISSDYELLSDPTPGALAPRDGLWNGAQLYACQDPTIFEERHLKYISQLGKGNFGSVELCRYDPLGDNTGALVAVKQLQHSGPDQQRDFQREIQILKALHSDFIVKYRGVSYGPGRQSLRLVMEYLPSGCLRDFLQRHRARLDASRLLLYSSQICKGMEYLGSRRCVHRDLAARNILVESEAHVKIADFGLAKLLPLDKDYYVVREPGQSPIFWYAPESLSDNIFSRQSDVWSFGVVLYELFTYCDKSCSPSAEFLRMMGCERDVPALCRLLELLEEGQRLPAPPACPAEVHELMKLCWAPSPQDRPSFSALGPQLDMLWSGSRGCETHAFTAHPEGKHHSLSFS
For Y371A, the “effect of a mutation on the interaction” value was “disrupting interaction”.
